This is an account of results in publication PMC7971878.

The target of assay [1] is CSFV sE2 (soluble E2 protein, 693-1020aa) with (His)6 tag (classical swine fever virus). The assay is described as follows: SPR; Biacore […] (20 μg/ml) […]; 20 mM Hepes, 150 mM NaCl, 0.005% Tween 20, pH 7.4, […]; 1:1 binding model. On the technique in general: SPR reads the build-up and loss of mass on a sensor chip optically.
The target is the same in assay [2]. The assay is described as follows: SPR; Biacore T100; […] (20 μg/ml) […]; 20 mM Hepes, 150 mM NaCl, 0.005% Tween 20, pH 7.4, […]; 1:1 binding model.

For the substance “soluble metalloproteinase domain of pig ADAM17 (sMP) with (His)6 tag (from UniProt O77636 18-477) (domain or fragment)”, the results for the Kd in assay [1] and in assay [2] were 3.2 µM and 100 nM, respectively.

Broadly, the Kd is a measure of binding affinity in units of concentration. A higher Kd goes with weaker binding.
